The values that follow come from patent publication US20230346934A1.

This assay concerns the target PDL1 on DMS 273-PDL1 target cells (UniProt Q9NZQ7). Briefly: cell-based or functional assay.
Sequence of UniProt Q9NZQ7 (Q9NZQ7 19-290 limits assumed): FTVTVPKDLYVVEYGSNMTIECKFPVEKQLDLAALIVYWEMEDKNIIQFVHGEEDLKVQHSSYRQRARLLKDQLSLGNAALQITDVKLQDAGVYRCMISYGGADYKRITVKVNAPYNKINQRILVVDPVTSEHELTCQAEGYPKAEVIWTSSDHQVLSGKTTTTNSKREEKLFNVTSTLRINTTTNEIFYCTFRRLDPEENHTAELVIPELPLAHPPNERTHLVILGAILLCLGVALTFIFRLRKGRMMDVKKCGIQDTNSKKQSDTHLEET

As to HA PD1.CD28 chimeric switch receptor, the cytokine secretion (IL-2, IFNγ; Meso Scale Discovery) was over 10 fold.
WT PD1.CD28 chimeric switch receptor: the cytokine secretion (IL-2, IFNγ; Meso Scale Discovery) is over 10 fold.
